We go through 41 sequences from the nanobody polyreactivity screen of Harvey et al. (2022).

This data set in a line: yeast display, Sf9 membrane polyspecificity reagent, FACS + sequencing; frameworks hold sequencing errors. In a few lines:
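Synthetic nanobody libraries on Saccharomyces cerevisiae BJ5465 were galactose-induced for 36–48 hours, stained 1 hour at 4 °C with 10% biotinylated, detergent-solubilized Sf9 membrane reagent and enriched on streptavidin microbeads. FACS then separated cells into low and high (top ~1%) gates by anti-HA (expression) and streptavidin (reagent binding) fluorescence. Genes were colony-PCR amplified, MiSeq 2 × 250 sequenced and CDR-length filtered. A clone's polyreactivity label is that of its gate of origin.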
Take “QVQLVESGGGLVQAGGSLRLSCAASGFTFSAYAMGWYRQAPGKERELVAAISTRGGSTRYADSVKGRFTISRDNAKNTVYLQMNSLKPADTAVYSCAADTRSFYRYDYWGQGTQVTVSS”: the “polyreactivity (PSR sort gate)” value is on record as “high polyreactivity”. With “QVQLVESGGGLVQAGGSLRLSCAASGFTFSAYTMGWYRQAPGKERELVAAINWSGANTYYADSVKGRFTISRDNAKNTVYLQMNSLKPEDTAVYYCNAEDDYTYDRSFGGYKYDYWGQGTQVTVSS”, the “polyreactivity (PSR sort gate)” value is listed as “low polyreactivity”. For “QVQLVESGGGLVQAGGSLRLSCAASGFTFSDNAMVWYRQAPGKERELVAAISEGSGITYDADSVKGRFTISRDNAKNTVNLQMNSLKPEDNAVYYCAADWLSKYDYWGQGTQVTVSS” the value was “low polyreactivity”; for “QVQLVESGGGLVQAGGSLRLSCAASGFTFSFYAMGWYRQAPGKERELVAAITNGGSTYYADSVKGRFTISRDNAKNTVYLQMNSLKPEDTAVYYCAAEWDYPWWRIVAVYGYEYWGQGTQVTVSS”, “low polyreactivity”; for “QVQLVESGGGLVQAGGSLRLSCAASGFTFSFYARGWYIQAPGKERELVAAIDRSGGSTYYADSVKGRFTISRDNAKNTVYLQMNSLKPEDTAVYYCAATVFYGYYYWGQGTQVTVSS”, “high polyreactivity”. On to “QVQLVESGGGLVQAGGSLRLSCAASGFTFSGYAMGWYRQAPGKERELVASISRRGGSTYYADSVKGRFTISRDNAKNTVYLQMNSLKPEDTAVYYCATLRGRLRFGYDYWGQGTQVTVSS”, for which the “polyreactivity (PSR sort gate)” value is on record as “high polyreactivity”. With “QVQLVESGGGLVQAGGSLRLSCAASGFTFSGYAMGWYRQAPGKERELVASITGSGSSTYYADSVKGRFTISRDNAKNNVYLQMNSLKPEDTAVYYCNAQFIGGWWAIYDYWGQGTQVTVSS”, the “polyreactivity (PSR sort gate)” value is “high polyreactivity”.

“QVQLVESGGGLVQAGGSLRLSCAASGFTFSKYTMGWYRQAPGQERELVARITRRGGSTYYADSVKGRFTISRDNAKNTVYLQMNSLKPEDTAVYYFAADVYAYNGEYDYWGQGTQVTVSS”: the “polyreactivity (PSR sort gate)” value is “high polyreactivity”. In the case of “QVQLVESGGGLVQAGGSLRLSCAASGFTFSLYAMGWYRQAPGKERELVAAISRSGGSTYYADSVKGRFTISRDNAKNTVYLQMNSLNPEDTAVYYCAAREQTYTQRGKKLYYYWGQGTQVTVSS”, the “polyreactivity (PSR sort gate)” value was “high polyreactivity”. For the sequence “QVQLVESGGGLVQAGGSLRLSCAASGFTFSLYAMGWYRQAPGKERELVAAISSRGGTTYYADSVKGRFTISRDNAKNTVYLQMNSLKPEDTAVYYCAARYVYTRSAFDYWGQGTQVTVSS”, the “polyreactivity (PSR sort gate)” value was “high polyreactivity”. As for “QVQLVESGGGLVQAGGSLRLSCAASGFTFSLYAMGWYRQAPGKERELVAAITWSGTRTYYADSVKGRFTISRDNAKNTVYLQMNSLKPEDTAVYYCATQGYGYRGWRNLYDYDYWGQGTQVTVSS”, the “polyreactivity (PSR sort gate)” value is recorded as “high polyreactivity”. As to “QVQLVESGGGLVQAGGSLRLSCAASGFTFSLYDMGWYRQAPGKERELVAAISSDGSTNYADSVKGRFTISRDNAKNTVYLQMNSLKPEDTAVYYCAADETFLSYWLNYWGQGTQVTLSS”, the “polyreactivity (PSR sort gate)” value is listed as “low polyreactivity”. Regarding “QVQLVESGGGLVQAGGSLRLSCAASGFTFSLYDMGWYRQAPGKERQLVADINGSGGSTYYADSVKGRFTISRDNAKNTVYLQMNSLKPEDTAVYYCAAGPPSRWWYIVDYGYWGQGTQVTVSS”, the “polyreactivity (PSR sort gate)” value is reported as “high polyreactivity”. Turning to “QVQLVESGGGLVQAGGSLRLSCAASGFTFSPNAMGWYRQAPGKERELVAAIDWSGDRTYSADSVKGRFTISRDNAKNTVYLQMNSLKPEDTAVYYCNVVRRSPGDYSYFYWGQGTQVTVSS”, the “polyreactivity (PSR sort gate)” value is “low polyreactivity”. As to “QVQLVESGGGLVQAGGSLRLSCAASGFTFSPYAMGWYRQATGKERELVAAIRWTDGSTYYADSVKGRFTISRDNAKNTVYLQMNSLKPEDTAVYYCAAYWYHNIGGYGPGLNYWGEGTQVTVSS”, the “polyreactivity (PSR sort gate)” value is “high polyreactivity”.

On to “QVQLVESGGGLVQAGGSLRLSCAASGFTFSQYAAMGWYRQAPGKERELVAAINISGSTNYADSVKGRFTISRDNAKNTVYLQMNSLKPEDTAVYYCNADVAPGIFYGYDSWGQGTQVTVSS”, for which the “polyreactivity (PSR sort gate)” value was “low polyreactivity”. With “QVQLVESGGGLVQAGGSLRLSCAASGFTFSQYAMGWYRQAPGKERELVAAINSRGGSTYYADSVKGRFTISRDNAKNTVYLQINSLKPEDTAVYYCNAVISGYPYEYDYWGQGTQVTVSS”, the “polyreactivity (PSR sort gate)” value is on record as “high polyreactivity”.

With “QVQLVESGGGLVQAGGSLRLSCAASGFTFSQYAMGWYRQAPGKERELVAAITFSGDSTYYADSVKGRFTISRDNAKNTVYLQMNSLKPEDTAVYYCNADDWWGGYDYWGQGTQVTVSS”, the “polyreactivity (PSR sort gate)” value is reported as “low polyreactivity”.

Consider “QVQLVESGGGLVQAGGSLRLSCAASGFTFSRNAMGWYRQAPGKERELDAAITSSGGSTYYADSVKGRFTISRDNAKNTVYLQMNSLKPEDTAVYYCNVVPIWRKYLSQIYGYWGQGTQVTVSS”, for which the “polyreactivity (PSR sort gate)” value is “high polyreactivity”. Regarding “QVQLVESGGGLVQAGGSLRLSCAASGFTFSRNDMGWYRQAPGKERELLASITTSGGGTYYADSVKGRFTISRDNAKNTVYLQMNSLKPEDTAVYYCAKDWFPWAGYYDFGYWGQGTQVTVSS”, the “polyreactivity (PSR sort gate)” value is on record as “low polyreactivity”. For “QVQLVESGGGLVQAGGSLRLSCAASGFTFSRYAMGWYRQAPGKERELVAAITSGGSTYYADSVKGRFTISRDNAMNTVYLQMNSLKPEDTAVYYCAVGVAEFFGYGYWGQGTQVTVSS” the value was “high polyreactivity”. Consider “QVQLVESGGGLVQAGGSLRLSCAASGFTFSRYAMGWYRQAPGKERELVAVITWNGGRTYYADSVKGRFTISRDNAKNTVYLLMNSLKPEDTAVYYCKAYYFFLPYRYSTYDYWGQGTQVTVSS”, for which the “polyreactivity (PSR sort gate)” value was “high polyreactivity”. Turning to “QVQLVESGGGLVQAGGSLRLSCAASGFTFSRYTMGWYRQAPGKERELVAAITSSGGSTYYADSVKGRFTISRDNAKNTVYLQMNSLKPEDTAVYYCAARRRESDQRGYCGQGTQVTVSS”, the “polyreactivity (PSR sort gate)” value is recorded as “high polyreactivity”. Consider “QVQLVESGGGLVQAGGSLRLSCAASGFTFSSYAMGWYRQAPGKERELVAAISYSGGSTYYADSVKGRFTISRDNAKNTVYLQMNSLKPEDTAVYYCAAQRGSEYYWGQGTQVTVSS”, for which the “polyreactivity (PSR sort gate)” value was “high polyreactivity”. Regarding “QVQLVESGGGLVQAGGSLRLSCAASGFTFSSYAMGWYRQAPGKERELVAAITISGGRTYYSDSVKGRFTISRDNAKNTVYLQMNSLKPEDTAVYYCNTDYGRRYDYWGQGTQVTVSS”, the “polyreactivity (PSR sort gate)” value is given as “high polyreactivity”. Regarding “QVQLVESGGGLVQAGGSLRLSCAASGFTFSTNAMGWYRPAPGKERELVAAISYGGVSTYYADSVKGRFTISRDNAKNTVYLQMNSLKPEDTAVYYCAAGRITTRLYGDPFDYWGQGTQVTVSS”, the “polyreactivity (PSR sort gate)” value is “low polyreactivity”. With “QVQLVESGGGLVQAGGSLRLSCAASGFTFSTNAMGWYRPAPGKEREVVAAITWRGGSTYYADSVKGRFTISRDNAKNTVYLQMNSLKPEDTAVYYCARRYRGSHVSYYKKFDYWGQGTQVTVSS”, the “polyreactivity (PSR sort gate)” value is recorded as “low polyreactivity”.

In the case of “QVQLVESGGGLVQAGGSLRLSCAASGFTFSTNAMGWYRQAPGKERELVAAISCTGGSTYYADSVKGRFTISRDNAKNTVYLQMNSLKPEDTAVYYCATKFFNPGMYFWGQGTQVTVSS”, the “polyreactivity (PSR sort gate)” value is listed as “high polyreactivity”. Consider “QVQLVESGGGLVQAGGSLRLSCAASGFTFSTYAMGWYRQAPGKERECVAAISSGGTTNYADSVKGRFTISRDNAKNTVYLQMNSLKPEDSAVYYCAADWYRYYEYGAYGYWGQGTQVTLSS”, for which the “polyreactivity (PSR sort gate)” value is given as “low polyreactivity”.

Consider “QVQLVESGGGLVQAGGSLRLSCAASGFTFSTYAMGWYRQAPGKERELVAAISFSGGSTYYADSVKGRFTISRDNAMNSVYLQMNRLKPEDTAVYYCARAYTKYFEIYFIYALLYGHWGQGTQVTVSS”, for which the “polyreactivity (PSR sort gate)” value is reported as “low polyreactivity”. On to “QVQLVESGGGLVQAGGSLRLSCAASGFTFSVNAMGRYRQAPGKERELVAAISSRGSITYYADSVKGRFTISRDNAKNTVYLQMNSLKPEDPAVYYCNAYKYKSPGDYWGQGTQVTVSS”, for which the “polyreactivity (PSR sort gate)” value is “high polyreactivity”. For “QVQLVESGGGLVQAGGSLRLSCAASGFTFSVYAMGWYRQAPGKERELVAAINWSGSTTYYADSVKGRFTISRDNAKNTVYLQMNSLKPEDTAVYYCAVEGRTTWPFRTYGYWGQGTQVTVSS” the value was “high polyreactivity”; for “QVQLVESGGGLVQAGGSLRLSCAASGFTFSVYAMGWYRQAPGKERELVAAISDSGGRTYYADSVKGRFTISRDNEKNTVYLQMNSLKPEDSAVYYWKARPAGRGYNYWGQGTQVTVSS”, “high polyreactivity”; for “QVQLVESGGGLVQAGGSLRLSCAASGFTFSVYAMGWYRQAPGKERELVAAISRGGGGTYYADSVKGRFTISRDNAKNTVYLQMNSLKPEDTAVYYCNAAGYPQYKGYDYWGQGTQVTVSS”, “high polyreactivity”. Turning to “QVQLVESGGGLVQAGGSLRLSCAASGFTFSVYAMGWYRQAPGKERELVADIDWSGGSTYYADSVKGRFTISRDNAKNTVYLQMNSLNPEDTAVYYCAADYYYPDSYVQGTSGEYWGQGTQVTVSS”, the “polyreactivity (PSR sort gate)” value is listed as “low polyreactivity”. Take “QVQLVESGGGLVQAGGSLRLSCAASGFTFSWYALGWYRQAPGKESELVAAINWSGTSTYYADSVKGRFTISRDNAKNTVYLQMNSLKPEDTAVYYCNVVVYRWSPVSKLDYWGQGTQVTVSS”: the “polyreactivity (PSR sort gate)” value is on record as “high polyreactivity”. As for “QVQLVESGGGLVQAGGSLRLSCAASGFTFSWYAMGWYRQAPGKERELVAAINADGGTTYYADSVKGRFTISRDNAKNTVYLQMHSLKPEDTAVYYFAAELSVDKYDYWGQGTQVSVSS”, the “polyreactivity (PSR sort gate)” value is “low polyreactivity”. Consider “QVQLVESGGGLVQAGGSLRLSCAASGFTFSWYAMGWYRQAPGKERELVAAISLSGDRTYYADSVKGRFTISRDNAKNSVYLQMNSLKPDDTAVYYCVFAFEYFYWGQGTQVTVSS”, for which the “polyreactivity (PSR sort gate)” value is recorded as “low polyreactivity”. On to “QVQLVESGGGLVQAGGSLRLSCAASGFTFSYNAMGWSRQAPGKERELVAAISSAGSTYYADSVKGRFTISRDNAKNTVYLQMNSLKPEDTAVYYCNAYRRSYRWYGDLGEYWGQGTQVTVSS”, for which the “polyreactivity (PSR sort gate)” value is reported as “high polyreactivity”. As to “QVQLVESGGGLVQAGGSLRLSCAASGFTFSYNAMGWYRQAPGKERELVAAIDWGGGSTYSYSVKGRFTISRDNAKNTVYLQMNSLKPEDTAVYYCAAYIPSSGRNPEIGVEYDYWGQGTQVTVSS”, the “polyreactivity (PSR sort gate)” value is given as “low polyreactivity”.

In the case of “QVQLVESGGGLVQAGGSLRLSCAASGFTFSYNAMGWYRQAPGKERELVAAISSTGTSTYYADSVKGRFTISRDNAKNTVYLQMNSLKPEDTAVYYCNAYGYDGYYAGRHGYWGQGTQVTVSS”, the “polyreactivity (PSR sort gate)” value is reported as “low polyreactivity”.
